The values that follow are results of earlier work, collected in paper PMC3324669.

The series has as its target CD155 (Homo sapiens) (UniProt P15151).

pKd: −log10 of the molar value.

UniProt P15151, sequence (P15151 21-343): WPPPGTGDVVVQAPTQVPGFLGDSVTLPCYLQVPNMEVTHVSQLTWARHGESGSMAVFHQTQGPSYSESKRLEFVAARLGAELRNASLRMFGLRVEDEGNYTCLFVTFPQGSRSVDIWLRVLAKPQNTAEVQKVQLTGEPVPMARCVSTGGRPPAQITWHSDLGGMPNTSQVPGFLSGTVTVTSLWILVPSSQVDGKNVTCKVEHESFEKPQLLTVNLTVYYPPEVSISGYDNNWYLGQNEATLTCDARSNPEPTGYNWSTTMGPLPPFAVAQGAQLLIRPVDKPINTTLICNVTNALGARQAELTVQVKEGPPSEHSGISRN

Turning to CD226 (from UniProt Q15762), the pKd is 8.70.
